Patent publication US20120316071A1 (published 2012)
Where a chain is given by its changes, count along the chain named. Names may count otherwise.

B1: Fab VH1-46_IGHD6-6*01_IGHJ1*01 S102A/S103P/S104F/H111F G56A & L6_IGKJ1*01 (Fab, V domains shown)
VH: QVQLVQSGAEVKKPGASVKVSCKASGYTFTSYYMHWVRQAPGQGLEWMGIINPSGASTSYAQKFQGRVTMTRDTSTSTVYMELSSLRSEDTAVYYCAREEYAPFSAEYFQFWGQGTLVTVSS
VL: not shown
notes: Fab made in E. coli: CH1 with His6/Flag tags from Plasmid A, kappa constant region from Plasmid C; also called APFF G56A
B2: Fab VH1-46_IGHD6-6*01_IGHJ1*01 S102A/S103P/S104F/H111F N52A & L6_IGKJ1*01 (Fab, V domains shown)
VH: B1 VH with N52A, A56G
VL: not shown
notes: Fab made in E. coli: CH1 with His6/Flag tags from Plasmid A, kappa constant region from Plasmid C; also called APFF N52A
B3: Fab VH1-46_IGHD6-6*01_IGHJ1*01 S102A/S103P/S104F/H111F S59A & L6_IGKJ1*01 (Fab, V domains shown)
VH: B1 VH with A56G, S59A
VL: not shown
notes: Fab made in E. coli: CH1 with His6/Flag tags from Plasmid A, kappa constant region from Plasmid C; also called APFF S59A
B4: Fab VH1-46_IGHD6-6*01_IGHJ1*01 S102A/S103P/S104F/H111F I51A & L6_IGKJ1*01 (Fab, V domains shown)
VH: B1 VH with I51A, A56G
VL: not shown
notes: Fab made in E. coli: CH1 with His6/Flag tags from Plasmid A, kappa constant region from Plasmid C; also called APFF I51A
B5: Fab VH1-46_IGHD6-6*01_IGHJ1*01 S102A/S103P/S104F/H111F T58A & L6_IGKJ1*01 (Fab, V domains shown)
VH: B1 VH with A56G, T58A
VL: not shown
notes: Fab made in E. coli: CH1 with His6/Flag tags from Plasmid A, kappa constant region from Plasmid C; also called APFF T58A
B6: Fab VH1-46_IGHD6-6*01_IGHJ1*01 S102A/S103P/S104F/H111F S57A & L6_IGKJ1*01 (Fab, V domains shown)
VH: B1 VH with A56G, S57A
VL: not shown
notes: Fab made in E. coli: CH1 with His6/Flag tags from Plasmid A, kappa constant region from Plasmid C; also called APFF S57A
B7: Fab VH1-46_IGHD6-6*01_IGHJ1*01 S102A/S103P/S104F/H111F I50A & L6_IGKJ1*01 (Fab, V domains shown)
VH: B1 VH with I50A, A56G
VL: not shown
notes: Fab made in E. coli: CH1 with His6/Flag tags from Plasmid A, kappa constant region from Plasmid C; also called APFF I50A
B8: Fab VH1-46_IGHD6-6*01_IGHJ1*01 S102A/S103P/S104F/H111F P53A & L6_IGKJ1*01 (Fab, V domains shown)
VH: B1 VH with P53A, A56G
VL: not shown
notes: Fab made in E. coli: CH1 with His6/Flag tags from Plasmid A, kappa constant region from Plasmid C; also called APFF P53A
B9: Fab VH1-46_IGHD6-6*01_IGHJ1*01 S102A/S103P/S104F/H111F S54A & L6_IGKJ1*01 (Fab, V domains shown)
VH: B1 VH with S54A, A56G
VL: not shown
notes: Fab made in E. coli: CH1 with His6/Flag tags from Plasmid A, kappa constant region from Plasmid C; also called APFF S54A
B10: Fab VH1-46_IGHD6-6*01_IGHJ1*01 S102A/S103P/S104F/H111F S54T & L6_IGKJ1*01 (Fab, V domains shown)
VH: B1 VH with S54T, A56G
VL: not shown
notes: Fab made in E. coli; CH1 with tags and kappa CL are not included; also called APFF S54T
B11: Fab VH1-46_IGHD6-6*01_IGHJ1*01 S102A/S103P/S104F/H111F S54L & L6_IGKJ1*01 (Fab, V domains shown)
VH: B1 VH with S54L, A56G
VL: not shown
notes: Fab made in E. coli; CH1 with tags and kappa CL are not included; also called APFF S54L
B12: Fab VH1-46_IGHD6-6*01_IGHJ1*01 S102A/S103P/S104F/H111F S54N & L6_IGKJ1*01 (Fab, V domains shown)
VH: B1 VH with S54N, A56G
VL: not shown
notes: Fab made in E. coli; CH1 with tags and kappa CL are not included; also called APFF S54N

These binders were tested against T1, Recombinant Human DLL4 (delta-like protein 4) (human, UniProt Q9NR61 27-524) (assay: ELISA on plate-coated DLL4, 100 nM Fab, signal minus noise).
T1 construct: Bought recombinant protein (R&D Systems Cat#1506-D4/CF); also called rHuman DLL4; Delta-like 4

Binder | ELISA (Signal-Noise)
B1 | 1.6
B2 | 0.6
B3 | 0.02
B4 | 0.49
B5 | 0.14
B6 | 0.39
B7 | 0.01
B8 | 0.41
B9 | 0.255

The binders below were run against T2, Recombinant Human DLL4 (delta-like protein 4) (human, UniProt Q9NR61 27-529) (assay: ELISA on coated DLL4, 100 nM Fab).
T2 construct: Bought recombinant human DLL4 (R&D Systems Cat#1506-D4/CF), coated on the plate; also called rHuman DLL4; Delta-like 4

Binder | ELISA signal
B10 | 0.08
B11 | 0.02
B12 | 0.02

Each binder was assayed against T2, Recombinant Human DLL4 (delta-like …) (assay: 96-well plate ECL (MSD) binding assay on coated DLL4, 10 nM Fab).

Binder | ECL signal
B10 | 57200
B11 | 28200
B12 | 31700

These binders were tested against T1, Recombinant Human DLL4 (delta-like …) (assay: ECL (MSD) multispot binding assay, DLL4 immobilised, 10 nM Fab, DLL4 signal over blank).

Binder | Signal/Noise [10 nM Fab]
B1 | 442
B2 | 721
B3 | 17.1
B4 | 637
B5 | 142
B6 | 293
B7 | 9.8
B8 | 462
B9 | 122
